The target of this test is Gβ1/Gγ2(C68S) complex (human, UniProt P62873 1-340; P59768 1-71, C68S). Description: SEC.
Gβ1/Gγ2(C68S) complex, sequence (P62873 whole entry, chain 1 of 2): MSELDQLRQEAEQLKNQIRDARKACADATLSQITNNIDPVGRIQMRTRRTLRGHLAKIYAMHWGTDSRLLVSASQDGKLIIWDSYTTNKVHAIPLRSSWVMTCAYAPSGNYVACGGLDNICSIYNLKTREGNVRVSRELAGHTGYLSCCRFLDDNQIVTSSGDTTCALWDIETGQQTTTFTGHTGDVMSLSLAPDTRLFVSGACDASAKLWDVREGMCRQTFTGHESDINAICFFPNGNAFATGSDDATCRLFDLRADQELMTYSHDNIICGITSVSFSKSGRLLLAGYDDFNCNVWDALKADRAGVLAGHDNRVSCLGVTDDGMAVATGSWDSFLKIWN
Gβ1/Gγ2(C68S) complex, sequence (P59768 whole entry C68S, chain 2 of 2): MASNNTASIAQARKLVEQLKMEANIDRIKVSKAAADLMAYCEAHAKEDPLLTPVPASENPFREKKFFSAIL

B1: Wild type human Gαs (residues 7-380 of the short isoform) (natural protein, UniProt P63092-2 7-380, looked up)
chain: SKTEDQRNEEKAQREANKKIEKQLQKDKQVYRATHRLLLLGAGESGKSTIVKQMRILHVNGFNGDSEKATKVQDIKNNLKEAIETIVAAMSNLVPPVELANPENQFRVDYILSVMNVPDFDFPPEFYEHAKALWEDEGVRACYERSNEYQLIDCAQYFLDKIDVIKQADYVPSDQDLLRCRVLTSGIFETKFQVDKVNFHMFDVGGQRDERRKWIQCFNDVTAIIFVVASSSYNMVIREDNQTNRLQEALNLFKSIWNNRWLRTISVILFLNKQDLLAEKVLAGKSKIEDYFPEFARYTTPEDATPEPGEDPRVTRAKYFIRDEFLRISTASGDGRHYCYPHFTCAVDTENIRRVFNDCRDIIQRMHLRQYELL
As to B1, the binding result is listed as “binds”.

The values above are taken from publication PMC5959768 (Cell, 2018).
